Data set [1] concerns the target HBc-pAzF (HBc ending at Val149 with p-azidophenylalanine in place of Ala80) (Hepatitis B virus genotype D, serotype ayw) (UniProt P03146). Put plainly: SEC; analytical HPLC-SEC of urea-dissociated samples: purified HBc VLPs after incubation with 4 M urea, and AEX eluates in 2 M urea; capsid to dimers.
Data set [2] deals with the molecule itself. Described as above.

In the case of “HBc-pAzF (HBc ending at Val149 with p-azidophenylalanine in place of Ala80) (from UniProt P03146 1-149) (domain or fragment)”, in data set [1], the stoichiometry N stood at 2.

B1: truncated Hepatitis B core antigen (HBc) ending at Val149 (domain or fragment)
chain: MDIDPYKEFGATVELLSFLPSDFFPSVRDLLDTASALYREALESPEHCSPHHTALRQAILCWGELMTLATWVGVNLEDPASRDLVVSYVNTNMGLKFRQLLWFHISCLTFGRETVIEYLVSFGVWIRTPPAYRPPNAPILSTLPETTVV
notes: Hepatitis B core antigen (capsid protein), HBV genotype D, serotype ayw, truncated variant ending at Val149; Forms dimers that assemble into VLPs; no tag is mentioned; also called HBc149; unmodified HBc; source: E. coli BL21(DE3), purified (AMS precipitation, AEX native or under dissociating conditions, HIC)
Regarding B1, the “stoichiometry N” value in data set [2] was found to be 2.

For orientation: stoichiometry N means the number of molecules, sites or subunits per partner or assembly.

(Values after article PMC12562343, “Modular Virus-like Particles for Antigen Presentation: Comparing Genetic Fusion and Click-Chemistry for Purification” (International Journal of Molecular Sciences, 2025).)
